Data on one substance can be found in article doi:10.1101/449629.

In experiment [1] the target is Recombinant hamster MIF (Syrian golden hamster macrophage migration inhibitory factor) (Syrian golden hamster (Mesocricetus auratus)). In words: SEC. For orientation: In gel filtration, larger molecules generally elute earlier.
Experiment [2] has the same target. Kind of experiment: crystal structure.

For “Recombinant hamster MIF (Syrian golden hamster macrophage migration inhibitory factor) (from UniProt A0A140EDM8 1-115) (natural protein)”, the stoichiometry N in experiment [1] and in experiment [2] was 3 in each case.
